The text below walks through data of patent US20190322746A1 (TESARO, published 2019).

The test deals with T1, T Cell Immunoglobulin and Mucin Domain-3 (TIM-3) on circulating CD14+ monocytes of patients (human, UniProt Q8TDQ0 22-301).
T1 construct: whole, on cells; Endogenous receptor on peripheral blood monocytes of patients in a first-in-human study; also called HAVCR2; TIM-3 receptor
Kind of test: flow cytometry receptor occupancy on circulating monocytes, whole blood of treated patients. In general terms: Flow cytometry measures light scatter and fluorescence of single cells or particles in a stream.

Description: To measure binding in the RO assay, whole blood was collected from patients at baseline (Day 1 predose), 48 hours following the first dose (Day 3) and prior to the second dose (Day 15 predose) for the Q2W schedule. […] Samples for occupancy measurement on the Q3W schedule were collected as follows: Day 1 predose, Day 5, Day 15 and Day 22.
All samples were pre-dose, with occupancy measured after a single dose on day 1. The occupancy ratio (free TIM-3:total TIM-3) is determined at various time points (for example, timepoints can include day 1, day 3, day 15, day 22, and day 29).

B1: TSR-022 (antibody, human IgG4 S228P, kappa, V domains shown)
VH: EVQLLESGGGLVQPGGSLRLSCAAASGFTFSSYDMSWVRQAPGKGLDWVSTISGGGTYTYYQDSVKGRFTISRDNSKNTLYLQMNSLRAEDTAVYYCASMDYWGQGTTVTVSS
VL: DIQMTQSPSSLSASVGDRVTITCRASQSIRRYLNWYHQKPGKAPKLLIYGASTLQSGVPSRFSGSGSGTDFTLTISSLQPEDFAVYYCQQSHSAPLTFGGGTKVEIKR
notes: Humanized IgG4 (human IGHG4*01 scaffold) with a kappa light chain (IGKC*01); also called anti-TIM-3 antibody; exemplary anti-TIM-3 antibody
Regarding B1, the binding result is listed as “binds”.
